According to patent publication US20040176301A1 (CYCLACEL, published 2004):
Where two headings read alike, the source gives them in different places. Square brackets hold non-standard residues; d marks the D form. Ends that are not written are not given here. hSer = N[C@@H](CCO)C(=O)O; Abu = CC[C@H](N)C(=O)O; Aib = CC(C)(N)C(=O)O; Sar = CNCC(=O)O

Assays:
CDK2/Cyclin E complex = CDK2/Cyclin E complex (UniProt P24941 1-298; P24864 1-410); assay: cell-based or functional assay
CDK4/Cyclin D1 complex = CDK4/Cyclin D1 complex (UniProt P11802 1-303; P24385 1-295); assay: cell-based or functional assay
Cyclin D1 = Cyclin D1 (UniProt P24385 1-295, limits assumed); assay: competitive ELISA: cyclin D1 binding to immobilised biotinyl-Ahx-p21(149-159)
From the text: The amount of bound Cyclin D1/Cyclin A was immunodetected and quantified by Turbo-ELISA reagent (PIERCE).

CDK2/cyclin A [1] = molecular target: T1, CDK2/cyclin A (UniProt P24941 1-298; P20248 1-432); assay: cell-based or functional assay
CDK2/cyclin A complex = CDK2/cyclin A complex (UniProt P24941 1-298; P20248 1-432); assay: cell-based or functional assay
CDK2/cyclin A [2] = molecular target: T1, CDK2/cyclin A; assay: cell-based or functional assay; remark: listed apart in the source
CDK1/Cyclin B complex = CDK1/Cyclin B complex (UniProt P06493 1-297; P14635 1-433); assay: cell-based or functional assay
CDK2/cyclin A [3] = molecular target: T1, CDK2/cyclin A; assay: cell-based or functional assay; remark: listed apart in the source

Sequence of CDK4/Cyclin D1 complex (P11802 other isoform, or with tags, fused parts or gaps, chain 1 of 2): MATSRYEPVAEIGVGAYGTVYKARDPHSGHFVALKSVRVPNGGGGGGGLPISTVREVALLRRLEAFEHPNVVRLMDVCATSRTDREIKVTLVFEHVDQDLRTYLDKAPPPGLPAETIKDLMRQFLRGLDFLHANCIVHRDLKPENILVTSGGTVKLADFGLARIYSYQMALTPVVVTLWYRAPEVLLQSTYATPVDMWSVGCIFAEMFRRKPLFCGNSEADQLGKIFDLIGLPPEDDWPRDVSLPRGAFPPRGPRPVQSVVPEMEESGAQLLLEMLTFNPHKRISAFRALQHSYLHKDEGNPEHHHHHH
Sequence of CDK4/Cyclin D1 complex (P24385 whole entry, chain 2 of 2): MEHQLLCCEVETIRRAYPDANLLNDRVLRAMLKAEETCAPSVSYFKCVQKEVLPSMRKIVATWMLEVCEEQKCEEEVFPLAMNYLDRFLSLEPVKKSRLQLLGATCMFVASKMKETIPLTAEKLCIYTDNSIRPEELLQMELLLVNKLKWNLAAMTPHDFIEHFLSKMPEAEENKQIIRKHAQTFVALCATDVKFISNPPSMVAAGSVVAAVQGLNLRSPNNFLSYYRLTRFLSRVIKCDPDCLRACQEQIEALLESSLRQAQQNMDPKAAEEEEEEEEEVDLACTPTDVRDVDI
Sequence of Cyclin D1 (P24385 whole entry): as the sequence (P24385 whole entry, chain 2 of 2) above
Sequence of CDK1/Cyclin B complex (P06493 other isoform, or with tags, fused parts or gaps, chain 1 of 2): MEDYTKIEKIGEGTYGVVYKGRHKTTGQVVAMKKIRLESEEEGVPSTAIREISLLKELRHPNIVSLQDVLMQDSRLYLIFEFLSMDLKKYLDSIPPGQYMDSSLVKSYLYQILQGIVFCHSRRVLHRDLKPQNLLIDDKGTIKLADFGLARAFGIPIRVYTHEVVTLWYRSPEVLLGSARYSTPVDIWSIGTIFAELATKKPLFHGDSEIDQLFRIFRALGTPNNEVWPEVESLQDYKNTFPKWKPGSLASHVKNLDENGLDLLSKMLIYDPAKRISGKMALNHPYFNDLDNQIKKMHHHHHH
Sequence of CDK1/Cyclin B complex (P14635 other isoform, or with tags, fused parts or gaps, chain 2 of 2): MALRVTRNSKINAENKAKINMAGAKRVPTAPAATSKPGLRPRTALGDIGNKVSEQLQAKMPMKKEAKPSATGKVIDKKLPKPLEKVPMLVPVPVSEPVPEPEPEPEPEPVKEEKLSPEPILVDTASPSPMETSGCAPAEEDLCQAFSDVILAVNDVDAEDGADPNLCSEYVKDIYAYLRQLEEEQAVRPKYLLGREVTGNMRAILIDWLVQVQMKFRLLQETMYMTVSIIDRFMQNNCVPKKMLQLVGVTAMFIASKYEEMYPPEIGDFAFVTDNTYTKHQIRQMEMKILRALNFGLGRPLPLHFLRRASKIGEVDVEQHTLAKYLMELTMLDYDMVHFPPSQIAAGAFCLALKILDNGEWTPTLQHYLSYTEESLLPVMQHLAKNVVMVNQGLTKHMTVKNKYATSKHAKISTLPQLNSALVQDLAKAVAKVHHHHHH

Binder: HSKRRLDL-NH2 [P21 C-terminus-LDL hybrid HSKRRLDL-NH2]
- % Inhibition, cyclin E/CDK2 kinase (CDK2/Cyclin E complex): 74%
- % Inhibition, cyclin D1/CDK4 kinase (CDK4/Cyclin D1 complex): 24%
- IC50 (Cyclin D1): > 200 µM

Binder: H-HAKRNLIF-NH2 [H-His-Ala-Lys-Arg-Asn-Leu-Ile-Phe-NH2]
- Relative activity, Kinase Inhibition (CDK2/cyclin A kinase assay, pRb substrate, [ATP] = 100 µM) (CDK2/cyclin A [1]): < 0.1 relative to H-His-Ala-Lys-Arg-Arg-Leu-Ile-Phe-NH2 (=1)

Binder: H-HAKRSLIF-NH2 [H-His-Ala-Lys-Arg-Ser-Leu-Ile-Phe-NH2]
- Relative activity, Kinase Inhibition (CDK2/cyclin A kinase assay, pRb substrate, [ATP] = 100 µM) (CDK2/cyclin A [1]): 0.7 relative to H-His-Ala-Lys-Arg-Arg-Leu-Ile-Phe-NH2 (=1)

Binder: XAKRRLIF (Pya (3-pyridylalanine) at position 1; C-terminal amide) [H-Pya-Ala-Lys-Arg-Arg-Leu-Ile Phe-NH2]
- Relative activity, CDK2/cyclin A kinase inhibition (pRb substrate) (CDK2/cyclin A complex): < 0.1 relative to HAKRRLIF-NH2

Binder: XAKRRLIF (Thi (2-thienylalanine) at position 1; C-terminal amide) [H-Thi-Ala-Lys-Arg-Arg-Leu-Ile Phe-NH2]
- Relative activity, CDK2/cyclin A kinase inhibition (pRb substrate) (CDK2/cyclin A complex): 2 relative to HAKRRLIF-NH2

Binder: H-HALRRLIF-NH2 [H-His-Ala-Leu-Arg-Arg-Leu-Ile-Phe-NH2]
- Relative activity, Kinase Inhibition (CDK2/cyclin A kinase assay, pRb substrate, [ATP] = 100 µM) (CDK2/cyclin A [2]): 0.1 relative to H-His-Ala-Lys-Arg-Arg-Leu-Ile-Phe-NH2 (=1)

Binder: DFYHAKRRLIFS-NH2 [p21 (149-160)S153A DFYHAKRRLIFS-NH2]
- IC50, CDK1-Cyclin B phosphorylation of GST-Rb (CDK1/Cyclin B complex): > 200 µM
- IC50, CDK1-Cyclin B phosphorylation of Histone 1 (CDK1/Cyclin B complex): 200 µM

Binder: H-HAARRLIF-NH2 [H-His-Ala-Ala-Arg-Arg-Leu-Ile-Phe-NH2]
- Relative activity, Kinase Inhibition (CDK2/cyclin A kinase assay, pRb substrate, [ATP] = 100 µM) (CDK2/cyclin A [2]): < 0.1 relative to H-His-Ala-Lys-Arg-Arg-Leu-Ile-Phe-NH2 (=1)

B1: H-His-Ala-Lys-Arg-Aib-Leu-Ile-Phe-NH2 (peptide)
peptide: H-HAKR[Aib]LIF-NH2
SMILES: CC[C@H](C)[C@H](NC(=O)[C@H](CC(C)C)NC(=O)C(C)(C)NC(=O)[C@H](CCCNC(=N)N)NC(=O)[C@H](CCCCN)NC(=O)[C@H](C)NC(=O)[C@@H](N)Cc1c[nH]cn1)C(=O)N[C@@H](Cc1ccccc1)C(N)=O
- Relative activity, Kinase Inhibition (CDK2/cyclin A kinase assay, pRb substrate, [ATP] = 100 µM) (CDK2/cyclin A [1]): < 0.1 relative to H-His-Ala-Lys-Arg-Arg-Leu-Ile-Phe-NH2 (=1)

Binder: H-HARRRLIF-NH2 [H-His-Ala-Arg-Arg-Arg-Leu-Ile-Phe-NH2]
- Relative activity, Kinase Inhibition (CDK2/cyclin A kinase assay, pRb substrate, [ATP] = 100 µM) (CDK2/cyclin A [2]): 5.7 relative to H-His-Ala-Lys-Arg-Arg-Leu-Ile-Phe-NH2 (=1)

Binder: H-HAKQRLIF-NH2 [H-His-Ala-Lys-Gln-Arg-Leu-Ile-Phe-NH2]
- Relative activity, Kinase Inhibition (CDK2/cyclin A kinase assay, pRb substrate, [ATP] = 100 µM) (CDK2/cyclin A [3]): < 0.1 relative to H-His-Ala-Lys-Arg-Arg-Leu-Ile-Phe-NH2 (=1)

Binder: H-HAKRPLIF-NH2 [H-His-Ala-Lys-Arg-Pro-Leu-Ile-Phe-NH2]
- Relative activity, Kinase Inhibition (CDK2/cyclin A kinase assay, pRb substrate, [ATP] = 100 µM) (CDK2/cyclin A [1]): < 0.1 relative to H-His-Ala-Lys-Arg-Arg-Leu-Ile-Phe-NH2 (=1)

B2: H-His-Ala-Lys-Arg-Sar-Leu-Ile-Phe-NH2 (peptide)
peptide: H-HAKR[Sar]LIF-NH2
SMILES: CC[C@H](C)[C@H](NC(=O)[C@H](CC(C)C)NC(=O)CN(C)C(=O)[C@H](CCCNC(=N)N)NC(=O)[C@H](CCCCN)NC(=O)[C@H](C)NC(=O)[C@@H](N)Cc1c[nH]cn1)C(=O)N[C@@H](Cc1ccccc1)C(N)=O
- Relative activity, Kinase Inhibition (CDK2/cyclin A kinase assay, pRb substrate, [ATP] = 100 µM) (CDK2/cyclin A [1]): < 0.1 relative to H-His-Ala-Lys-Arg-Arg-Leu-Ile-Phe-NH2 (=1)

Binder: H-AAKRRLIF-NH2 [H-Ala-Ala-Lys-Arg-Arg-Leu-Ile Phe-NH2]
- Relative activity, CDK2/cyclin A kinase inhibition (pRb substrate) (CDK2/cyclin A complex): 1.8 relative to HAKRRLIF-NH2

B3: H-His-Ala-Abu-Arg-Arg-Leu-Ile-Phe-NH2 (peptide)
peptide: H-HA[Abu]RRLIF-NH2
SMILES: CC[C@H](NC(=O)[C@H](C)NC(=O)[C@@H](N)Cc1c[nH]cn1)C(=O)N[C@@H](CCCNC(=N)N)C(=O)N[C@@H](CCCNC(=N)N)C(=O)N[C@@H](CC(C)C)C(=O)N[C@H](C(=O)N[C@@H](Cc1ccccc1)C(N)=O)[C@@H](C)CC
- Relative activity, Kinase Inhibition (CDK2/cyclin A kinase assay, pRb substrate, [ATP] = 100 µM) (CDK2/cyclin A [2]): 0.8 relative to H-His-Ala-Lys-Arg-Arg-Leu-Ile-Phe-NH2 (=1)

B4: H-His-Ala-Lys-Hse-Arg-Leu-Ile-Phe-NH2 (peptide)
peptide: H-HAK[hSer]RLIF-NH2
SMILES: CC[C@H](C)[C@H](NC(=O)[C@H](CC(C)C)NC(=O)[C@H](CCCNC(=N)N)NC(=O)[C@H](CCO)NC(=O)[C@H](CCCCN)NC(=O)[C@H](C)NC(=O)[C@@H](N)Cc1c[nH]cn1)C(=O)N[C@@H](Cc1ccccc1)C(N)=O
- Relative activity, Kinase Inhibition (CDK2/cyclin A kinase assay, pRb substrate, [ATP] = 100 µM) (CDK2/cyclin A [3]): < 0.1 relative to H-His-Ala-Lys-Arg-Arg-Leu-Ile-Phe-NH2 (=1)

Binder: PVKRRLDL-NH2 (Derived from E2F1) [E2F1 peptide PVKRRLDL-NH2]
- % Inhibition, cyclin E/CDK2 kinase (CDK2/Cyclin E complex): 74%
- IC50, cyclin E/CDK2 kinase (CDK2/Cyclin E complex): 2.1 µM
- % Inhibition, cyclin D1/CDK4 kinase (CDK4/Cyclin D1 complex): 58%
- IC50, cyclin D1/CDK4 kinase (CDK4/Cyclin D1 complex): 99 µM
- IC50 (Cyclin D1): > 100 µM
